Reference: paper PMC7336809, “AcnSP – A Novel Small Protein Regulator of Aconitase Activity in the Cyanobacterium Synechocystis sp. PCC 6803” (Frontiers in Microbiology, 2020)

Assays:
[1] = target: recombinant Synechocystis 6803 aconitase (AcnB), His-tagged (Synechocystis sp. PCC 6803) (UniProt P74582)
purified protein = substrate: O=C(O)/C=C(/CC(=O)O)C(=O)O; experiment: purified protein; type: biochemical, Synechocystis sp. PCC 6803; details: 10 mM DTT (reducing), no AcnSP, 50 mM Tris-malate pH 7.5, 30°C, 0.3 mM NADP+, 2 mM Na2EDTA, 10 mM MnCl2

Row | Molecule | Kcat of aconitase with 2 nmol AcnSP added to 2 nmol AcnB, oxidizing conditions (−DTT); control without AcnSP 3.46 [1] [s^–1] | Kcat of aconitase with 2 nmol AcnSP added to 2 nmol AcnB, reducing conditions (+10 mM DTT); control without AcnSP 14.92 [1] [s^–1] | Km (purified protein) [µM] | Vmax (purified protein) [µmol/min/mg] | kcat (purified protein) [s⁻¹]
1 | synthetic AcnSP peptide (aconitase small protein) | 3.15 | 13.8 |  |  | 
2 | recombinant AcnB (aconitase B, Slr0665) (Synechocystis sp. PCC 6803 substr. Kazusa) (protein, full-length (868 aa), His-tagged from pET28a(+) (NdeI/SalI), E. coli BL21 (DE3), Ni-NTA; medium supplemented with Fe-citrate for iron-sulfur centers) MLQAYRRHVADRQKLGIPPLPLNAQQTTELCELLKNPPEAEKEELMMLLRDRVPPGVDEAAYVKAGFLTAIAKGEVTCPLISGQGAVDLLGTMIGGYNVQSLIELLKSKDTNIASAAATALSKTLLVFDAFNDVLHLSDTNGYAKQVIDAWAEGAWFINKPEVPERITVTVFKVPGETNTDDLSPAPHATTRPDIPLHALAMLEAKMPEGLGTIAELKQKGHPVAYVGDVVGTGSSRKSAINSVLWHIGTDIPFVPNKRAGGYILGGKIAPIFFNTAEDSGALPIECDVNQLNTGDVITIYPREGKITNKAGETITTFQLKPETILDEVRAGGRIPLLIGRALTDKTREALGLSPSPLFVRPTAPADTGKGFTLAQKMVGKACGVQGIRPGTSCEPIMTTVGSQDTTGPMTRDELKELACLGFNADLTLQTFCHTAAYPKPVDIKTHKDLPDFFSTRGGVALRPGDGIIHSWLNRMLLPDTVGTGGDSHTRFPLGISFPAGSGLVAFAAALGVMPLDMPESVLVKFTGELQPGVTLRDIVNAIPWVAMQQGKLTVGKGDKVNVFNGRIMEMEGLPDLKVEQAFELTDATAERSCSGSTIKLSEETVAEYLRSNVVLMKNMIARGYQDARTLLRRIAKMEEWLANPSLMSGDADAEYADVIEVNLDEIKEPIVAAPNDPDNVKLMSECAGDVIHEVFIGSCMTNIGHYRAAAKILEGAGTVKGRLWICPPTRMDEQQLREEGIYGIFAAAGARTEMPGCSLCMGNQARVEDGVTVFSTSTRNFNNRMGKGAQVYLGSAELAAVCALLGKIPTVEEYLAIVSEKVAPFEGELYRYLNFNEIDNFEDFGRVIPLDQMPKIEDILGMPVGAK |  |  | 371 ± 20 | 9.04 | 14.9
